Where only a bound is given, the exact number is not on record here.

The record followed here is the Immune Epitope Database (IEDB).

Some targets named below: HLA-A*24:02; HLA-A*26:01; HLA-A*02:02; HLA-A*02:03; HLA-A*02:06.
Holding throughout (assay): IEDB peptide-MHC binding, purified MHC/competitive/radioactivity; filed as Kd, often an IC50 or EC50 that approximates it; ≥ and ≤ were set here for values at or beyond the usual limits of such assays
[1] abbreviates: source organism: Dengue virus 2 Jamaica/1409/1983.
Setting [2] is: source organism: Dengue virus 4 Philippines/H241/1956.
The mark [3] stands for this setting: source organism: Dengue virus 4 Dominica/814669/1981.
[4] abbreviates: source organism: Dengue virus 1 Brazil/97-11/1997.
Where [5] appears, read: source organism: Vaccinia virus WR.
[6] abbreviates: source organism: SARS coronavirus Tor2.
Setting [7] is: source organism: Dengue virus 3 Martinique/1243/1999.
Setting [8] is: source organism: Mammarenavirus whitewaterense.

What is called Kd is a measure of binding affinity in units of concentration. Turning to QYIYMGEPLE, the Kd with HLA-A*24:02 (setting [1]) was 9090 nM.

For DTITYKCPL, the Kd with HLA-A*26:01 (setting [1]) is 3380 nM.

Turning to ISYKDREWCF, in the test with HLA-A*24:02 (setting [2]), the dissociation constant Kd was 1020 nM.

LYAVATTFVT: the Kd in the test with HLA-A*24:02 (setting [1]) came to 550 nM.

With DTVTYECPL, in the test with HLA-A*26:01 (setting [2]), the Kd turned out to be 6130 nM.

As for STITLLCLI, the Kd in the test with HLA-A*26:01 (setting [3]) stood at 867 nM.

As for DTIETLMLL, the Kd in the test with HLA-A*26:01 (setting [4]) was 141 nM.

Turning to ELIDGISLGL, the Kd with HLA-A*26:01 (setting [3]) came to 500 nM.

Regarding EFFLIVLLI, the Kd in the test with HLA-A*24:02 (setting [1]) was 3050 nM.

AYSLTLQGL: the Kd with HLA-A*24:02 (source organism: Homo sapiens) was found to be 45 nM.

As to PIPYSRVNHA, the dissociation constant Kd came out at 11700 nM with HLA-A*02:02 (setting [5]), 15300 nM with HLA-A*02:03 (setting [5]) and 1450 nM with HLA-A*02:06 (setting [5]).

In the case of TWVTYGTCTT, the Kd with HLA-A*24:02 (source organism: Dengue virus 2 Peru/IQT2913/1996) was at least 70300 nM.

With GMMQNDYGGM, the figures for the Kd with HLA-A*02:02 (setting [5]), in the test with HLA-A*02:03 (setting [5]) and in the test with HLA-A*02:06 (setting [5]) were 103 nM, 589 nM and 12000 nM, respectively.

For VIPDELIDV, the Kd turned out to be 609 nM in the test with HLA-A*02:02 (setting [5]), 43.8 nM with HLA-A*02:03 (setting [5]) and 556 nM in the test with HLA-A*02:06 (setting [5]).

For TTENAAYQVL, the Kd is at least 29700 nM with HLA-A*02:02 (setting [5]), at least 70400 nM with HLA-A*02:03 (setting [5]) and at least 69800 nM with HLA-A*02:06 (setting [5]).

Take FLAFVVFLL: the Kd with HLA-A*02:02 (setting [6]) was 0.411 nM; in the test with HLA-A*02:03 (setting [6]), 87.9 nM; with HLA-A*02:06 (setting [6]), 2.57 nM.

Regarding ITVDDDGTM, the Kd with HLA-A*26:01 (setting [7]) worked out at 13900 nM.

As for ETLFGSYIT, the Kd amounted to 2490 nM in the test with HLA-A*02:02 (setting [5]), 2440 nM with HLA-A*02:03 (setting [5]) and 15300 nM with HLA-A*02:06 (setting [5]).

SQMETDFLEL: the figures for the Kd in the test with HLA-A*02:02 (setting [6]), in the test with HLA-A*02:03 (setting [6]) and with HLA-A*02:06 (setting [6]) were 227 nM, 597 nM and 20.6 nM, respectively.

As for SLVITYCLV, the Kd in the test with HLA-A*02:02 (setting [5]) is 1690 nM; with HLA-A*02:03 (setting [5]), 201 nM; in the test with HLA-A*02:06 (setting [5]), 269 nM.

In the case of YIFFASFYYI, the figures for the Kd in the test with HLA-A*02:02 (setting [6]), in the test with HLA-A*02:03 (setting [6]) and with HLA-A*02:06 (setting [6]) were 0.46 nM, 59.8 nM and 0.8 nM, respectively.

As to PTRTWKVLSI, the Kd was at least 41900 nM in the test with HLA-A*02:02 (setting [5]), 15100 nM with HLA-A*02:03 (setting [5]) and at least 69800 nM with HLA-A*02:06 (setting [5]).

On to LMSFTILCLV, for which the Kd in the test with HLA-A*02:02 (setting [6]) was 0.338 nM; in the test with HLA-A*02:03 (setting [6]) it was 90.6 nM; in the test with HLA-A*02:06 (setting [6]), 39.6 nM.

On to QILDNAAKYV, for which the Kd in the test with HLA-A*02:02 (setting [5]) worked out at 3930 nM; with HLA-A*02:03 (setting [5]) it was 3870 nM; with HLA-A*02:06 (setting [5]), 11400 nM.

In the case of TTIGTIAGGV, the equilibrium dissociation constant (Kd) was determined as 741 nM with HLA-A*02:02 (setting [5]), 42.6 nM in the test with HLA-A*02:03 (setting [5]) and 84.3 nM in the test with HLA-A*02:06 (setting [5]).

As to LTFIKTTLSL, in the test with HLA-A*26:01 (setting [4]), the Kd was determined as 11400 nM.

Consider KTEHCDDFMT, for which the values for the Kd with HLA-A*02:02 (setting [5]), with HLA-A*02:03 (setting [5]) and with HLA-A*02:06 (setting [5]) were 7820 nM, at least 37700 nM and 11600 nM, respectively.

For the sequence KADAVVADL, the results for the Kd with HLA-A*02:02 (setting [5]), with HLA-A*02:03 (setting [5]) and with HLA-A*02:06 (setting [5]) were 5140 nM, 12400 nM and 2210 nM, respectively.

Take VLALYSPPL: the Kd in the test with HLA-A*02:02 (setting [5]) amounted to 0.224 nM; in the test with HLA-A*02:03 (setting [5]), 0.412 nM; with HLA-A*02:06 (setting [5]), 32.6 nM.

For the sequence ALEPRKEIDV, the Kd was 8370 nM with HLA-A*02:02 (setting [5]), 11200 nM with HLA-A*02:03 (setting [5]) and at least 63300 nM in the test with HLA-A*02:06 (setting [5]).

Turning to NTYKRSGIM, in the test with HLA-A*26:01 (setting [4]), the Kd was found to be 6550 nM.

Turning to LINLVQYRI, the Kd with HLA-A*02:02 (setting [5]) came to 311 nM; with HLA-A*02:03 (setting [5]) it was 583 nM; with HLA-A*02:06 (setting [5]), 5340 nM.

NTNQGNILM: the Kd in the test with HLA-A*02:02 (setting [5]) was found to be 1700 nM; in the test with HLA-A*02:03 (setting [5]) it was 1150 nM; with HLA-A*02:06 (setting [5]) it was 5940 nM.

Consider HTLIMIGSNA, for which the Kd in the test with HLA-A*26:01 (setting [7]) is at least 22700 nM.

Consider ILDNAAKYV, for which the Kd with HLA-A*02:02 (setting [5]) was found to be 126 nM; with HLA-A*02:03 (setting [5]), 261 nM; with HLA-A*02:06 (setting [5]), 1810 nM.

For the sequence LDFAKVASV, the values for the Kd with HLA-A*02:02 (setting [8]), with HLA-A*02:03 (setting [8]) and with HLA-A*02:06 (setting [8]) were 61.2 nM, 452 nM and 10600 nM, respectively.

Turning to EVNDTHYTV, the dissociation constant (Kd) was 133 nM with HLA-A*02:02 (setting [5]), 115 nM with HLA-A*02:03 (setting [5]) and 4780 nM with HLA-A*02:06 (setting [5]).

Regarding FICNLLLLFV, the dissociation constant (Kd) with HLA-A*02:02 (setting [6]) was 2.47 nM; in the test with HLA-A*02:03 (setting [6]), 14.6 nM; with HLA-A*02:06 (setting [6]), 3.96 nM.

Regarding AIKQYGDIDL, the Kd with HLA-A*02:02 (setting [5]) was at least 23400 nM; with HLA-A*02:03 (setting [5]), at least 46400 nM; in the test with HLA-A*02:06 (setting [5]) it was at least 69800 nM.

GAFMYTKHSM: the Kd with HLA-A*02:02 (setting [5]) was 544 nM; with HLA-A*02:03 (setting [5]), 458 nM; with HLA-A*02:06 (setting [5]), 3140 nM.
